Source: patent publication US20240026330A1 (FLUX THERAPEUTICS, published 2024)

What was measured:
Test in all cases: cell-based or functional assay
[1] = molecular target: T1, UQCC2-nanoluc-alfa-tag-fusion
T1 chain: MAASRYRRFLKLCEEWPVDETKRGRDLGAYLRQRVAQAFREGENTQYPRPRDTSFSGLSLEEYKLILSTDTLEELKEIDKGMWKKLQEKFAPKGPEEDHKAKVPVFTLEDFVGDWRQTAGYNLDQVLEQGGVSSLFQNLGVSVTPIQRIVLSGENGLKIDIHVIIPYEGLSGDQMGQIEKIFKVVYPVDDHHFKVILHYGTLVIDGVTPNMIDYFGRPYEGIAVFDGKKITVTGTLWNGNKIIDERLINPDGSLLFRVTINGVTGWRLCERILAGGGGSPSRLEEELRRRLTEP

[2] = molecular target: T2, LYRM7-nanoluc-alfa-tag-fusion
T2 chain: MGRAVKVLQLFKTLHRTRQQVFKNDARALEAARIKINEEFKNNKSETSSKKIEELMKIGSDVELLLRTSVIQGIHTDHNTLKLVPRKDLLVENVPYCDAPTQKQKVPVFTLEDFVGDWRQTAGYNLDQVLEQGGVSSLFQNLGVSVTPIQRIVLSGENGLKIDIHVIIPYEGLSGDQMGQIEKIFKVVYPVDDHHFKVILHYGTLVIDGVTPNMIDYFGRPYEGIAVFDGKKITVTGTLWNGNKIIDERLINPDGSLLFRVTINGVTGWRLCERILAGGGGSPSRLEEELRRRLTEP

[3] = molecular target: COX6A2-nanoluc-alfa-tag-fusion

B1: FireflyLuciferase-P2A-a_alfatag_nano-Cezanne (other)
chain: MEDAKNIKKGPAPFYPLEDGTAGEQLHKAMKRYALVPGTIAFTDAHIEVDITYAEYFEMSVRLAEAMKRYGLNTNHRIVVCSENSLQFFMPVLGALFIGVAVAPANDIYNERELLNSMGISQPTVVFVSKKGLQKILNVQKKLPIIQKIIIMDSKTDYQGFQSMYTFVTSHLPPGFNEYDFVPESFDRDKTIALIMNSSGSTGLPKGVALPHRTACVRFSHARDPIFGNQIIPDTAILSVVPFHHGFGMFTTLGYLICGFRVVLMYRFEEELFLRSLQDYKIQSALLVPTLFSFFAKSTLIDKYDLSNLHEIASGGAPLSKEVGEAVAKRFHLPGIRQGYGLTETTSAILITPEGDDKPGAVGKVVPFFEAKVVDLDTGKTLGVNQRGELCVRGPMIMSGYVNNPEATNALIDKDGWLHSGDIAYWDEDEHFFIVDRLKSLIKYKGYQVAPAELESILLQHPNIFDAGVAGLPDDDAGELPAAVVVLEHGKTMTEKEIVDYVASQVTTAKKLRGGVVFVDEVPKGLTGKLDARKIREILIKAKKGGKIAVTRLKGSGATNFSLLKQAGDVEENPGPRSGTGSSGEVQLQESGGGLVQPGGSLRLSCTASGVTISALNAMAMGWYRQAPGERRVMVAAVSERGNAMYRESVQGRFTVTRDFTNKMVSLQMDNLKPEDTAVYYCHVLEDRVDSFHDYWGQGTQVTVSSGAPGSGPPSFSEGSGGSRTPEKGFSDREPTRPPRPILQRQDDIVQEKRLSRGISHASSSIVSLARSHVSSNGGGGGSNEHPLEMPICAFQLPDLTVYNEDFRSFIERDLIEQSMLVALEQAGRLNWWVSVDPTSQRLLPLATTGDGNCLLHAASLGMWGFHDRDLMLRKALYALMEKGVEKEALKRRWRWQQTQQNKESGLVYTEDEWQKEWNELIKLASSEPRMHLGTNGANCGGVESSEEPVYESLEEFHVFVLAHVLRRPIVVVADTMLRDSGGEAFAPIPFGGIYLPLEVPASQCHRSPLVLAYDQAHFSALVSMEQKENTKEQAVIPLTDSEYKLLPLHFAVDPGKGWEWGKDDSDNVRLASVILSLEVKLHLLHSYMNVKWIPLSSDAQAPLAQ
For B1, the “fold increase in UQCC2 protein expression (NLuc signal divided by firefly luciferase signal, relative to control)” value [1] was 2.87 fold, the “fold increase in LYRM7 protein expression (NLuc signal divided by firefly luciferase signal, relative to control)” value [2] was 1.39 fold and the “fold increase in COX6A2 protein expression (NLuc signal divided by firefly luciferase signal, relative to control)” value [3] was 1.48 fold.
